Like-named read-outs stand apart in the source and are kept apart here.

B1: ANAC087(315–335) (peptide, UniProt Q9FK44 315-335, looked up)
chain: MVNGSKSYEDLCDLRGDLWDF
notes: NAC transcription factor ANAC087, Arabidopsis thaliana, AT5G18270, residues 315-335
B2: AtDREB2A(244–272;L264I) (peptide, UniProt O82132 244-272, looked up)
chain: WPNDVDQSHLDSSDMFDVDEILRDLNGDD
notes: DREB2A, Arabidopsis thaliana, AT5G05410, residues 244-272 with Leu264 to Ile; source: mutation by QuikChange
B3: AtDREB2A(244–272) (peptide, UniProt O82132 244-272, looked up)
chain: WPNDVDQSHLDSSDMFDVDELLRDLNGDD
B4: AtRCD1-RST(499–572) (domain or fragment, Arabidopsis thaliana, UniProt Q8RY59 499-572, looked up)
chain: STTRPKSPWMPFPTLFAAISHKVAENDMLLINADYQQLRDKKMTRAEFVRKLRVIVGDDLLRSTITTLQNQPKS
notes: RST domain of Radical-Induced Cell Death1 (RCD1), Arabidopsis thaliana, residues 499-572; also called AtRST(499–572); Arabidopsis RST domain
B5: ANAC013(254–274;L266I) (peptide, UniProt F4IED2 254-274, looked up)
chain: NLEEDMYLEINDIMEPEPEPT
notes: ANAC013, Arabidopsis thaliana, AT1G32870, residues 254-274 with Leu266 to Ile; Probably made from the ANAC013(254–274) plasmid of previous work and purified in the same way; also called AtANAC013(254–274;L266I)

The target in assay [1] is RCD1 RST (Arabidopsis thaliana) (UniProt Q8RY59). The note with it: cited from earlier work.
Assay [2] concerns the target RCD1 499-572 (Arabidopsis thaliana) (UniProt Q8RY59). Put plainly: ITC. The note with it: cited from earlier work.
In assay [3] the target is GmDREB2A(273–290) (Glycine max (soybean)). Description: ITC; RST domain in the syringe (100–300 µM) titrated into the TF fragment in the cell (10–30 µM); 25 °C; 50 mM Hepes, pH 7.4, 100 mM NaCl; one set of sites model. For orientation: In ITC the heat of successive injections is recorded.
In assay [4] the target is ANAC013(254–274) (Arabidopsis thaliana) (UniProt F4IED2). The description is as above.
In the assay “AtDREB2A(244–272)” the target is B3. Described as above.
Assay [5] addresses B4. Description: ITC; ANAC087(315–335) in the syringe (100–300 µM) titrated into the RST domain in the cell (10–30 µM); 25 °C; 50 mM Hepes, pH 7.4, 100 mM NaCl; one set of sites model. The settings on record: both partners purified.
The target in assay [6] is B4. Description: ITC; RST domain in the syringe (100–300 µM) titrated into the TF fragment in the cell (10–30 µM); 25 °C; 50 mM Hepes, pH 7.4, 100 mM NaCl; one set of sites model. The note with it: both partners purified.
Assay [7] has as its target HvDRF1.1(255–273) (Hordeum vulgare (barley)). Described as above.
Another assay concerns the target T1, HvNAC013(176–346) (Hordeum vulgare (barley), UniProt F2EJH0 176-346).
T1 construct: HvNAC013, barley (Hordeum vulgare) NAC transcription factor, ID AK376297.1, residues 176-346; also called barley ortholog of ANAC046; source: plasmid from previous work
T1 sequence (looked up): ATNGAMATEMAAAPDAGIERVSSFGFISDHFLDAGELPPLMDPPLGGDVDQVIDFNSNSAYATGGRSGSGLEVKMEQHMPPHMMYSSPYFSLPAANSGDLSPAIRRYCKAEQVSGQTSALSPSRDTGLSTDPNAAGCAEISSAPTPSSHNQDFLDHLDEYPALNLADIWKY
The assay is described as above. The settings on record: both partners purified.

ANAC013(254–274) (Arabidopsis thaliana), sequence (F4IED2 254-274): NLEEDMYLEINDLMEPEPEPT

The Kd is the concentration at which binding is half-saturated. As to ANAC046 (from UniProt Q9SQQ6), the Kd in assay [1] is 609 nM.

With ANAC013 254-274 (from UniProt F4IED2), the Kd in assay [2] was 9 nM.

The term stoichiometry N denotes a count of units in the complex or per binding partner. Take “GmRCD1-RST(483–583) (domain or fragment)”: in [3], the dissociation constant Kd was 2590 nM, the dH is -5.62 kcal/mol and the stoichiometry N is 0.98. For the same molecule, in [4], the Kd was 526 nM, the dH was -8.77 kcal/mol and the stoichiometry N worked out at 0.94. In the assay with AtDREB2A(244–272), this molecule had an equilibrium dissociation constant (Kd) of 320 nM, a dH of -9.25 kcal/mol and a stoichiometry N of 0.95.

With B1, in the assay with AtRCD1-RST(499–572) [5], the Kd worked out at 1750 nM, the dH was -3.8 kcal/mol and the “stoichiometry N” value is 0.93.

Turning to B2, the dissociation constant Kd in the assay with AtRCD1-RST(499–572) [6] came out at 39 nM.

B3: binding with AtRCD1-RST(499–572) [6] was put at a Kd of 16 nM.

B4: the Kd came to 450 nM in assay [7], 397 nM in [3] and 343 nM with HvNAC013(176–346). Besides, the dH in [7] is -11.6 kcal/mol; in assay [3], -8.34 kcal/mol; with AtDREB2A(244–272) (both partners purified), -15.1 kcal/mol; with HvNAC013(176–346), -1.08 kcal/mol. Besides, the entries for the “stoichiometry N” value with AtDREB2A(244–272) (both partners purified) and in the assay with HvNAC013(176–346) were 0.9 and 1.03, respectively.

In turn, B5 came in with a dissociation constant Kd with AtRCD1-RST(499–572) [6] of 223 nM.

(Values after article PMC6908617, “Evolutionary conservation of the intrinsic disorder-based Radical-Induced Cell Death1 hub interactome” (Scientific Reports, 2019).)
